In patent US20240277861A1, “ANTI-HEPATITIS B VIRUS AGENT TARGETING HOST FACTOR LIPG” (PUROTECH BIO, INC., priority 2021, published 2024):

Columns and labels:
HBV [1] = test: HBV attachment, uptake and replication in Huh7-LIPG cells; format: cell-based; details: Huh7-LIPG cells infected with HBV, 3 days after treatment
Protocol: (§1) HBV-DNA and cccDNA were quantified by qPCR as described below. Total DNA was extracted from cells using DNeasy Blood & Tissue Kit (Qiagen, Hilden, Germany). HBV-DNA was quantified by qPCR analysis as previously reported (Honda. M. et al., J. Infect. Dis., 213, 1096-1106, 2016). The extracted DNA (50 ng) was treated with 10 U of Plasmid safe DNase I (Epicentre, Madison. WI) at 37° C. for 60 minutes and then treated at 70° C. for 30 minutes for DNase inactivation, cccDNA was quantified by qPCR analysis as previously reported (Honda, M. et al., J. Infect. Dis. 213, 1096-1106, 2016). Quantitative RT-PCR was performed as described below. The GenElute™ Mammalian Total RNA Miniprep Kit (Sigma-Aldrich) was used for extraction of total RNA, and the High Capacity cDNA Reverse Transcription Kit (Applied Biosystems, Carlsbad, CA) was used for cDNA synthesis. The 7500 Real Time PCR System (Applied Biosystems) was used for RT-PCR. Primers 5′-[…]-3′ (SEQ ID NO: 31) and 5′-[…]-3′ (SEQ ID NO: 32) and a probe 5′-FAM-[…]-MGB-3′ (SEQ ID NO: 33) were used for pregenomic RNA. Primer pairs and probes for LIPG, NTCP. 18SrRNA, and ACTB were obtained from the TaqMan assay reagents library.
When the abundance of LIPG expression was compared among different liver cell lines. […] HepG2-NTCP-C4 cells with overexpression of FLAG-LIPG (HepG2-NTCP-C4-LIPG cells) were established (FIG. 2B), and the attachment and uptake of HBV into cells were assayed in the resulting cells. Heparin, which has been reported to inhibit HBV attachment (Schulze. A. et al., Hepatology 46: 1759-1768, 2007), and heparanase, an endo-β-D-glucuronidase that cleaves the heparan sulfate side chain in heparan sulfate proteoglycans (HSPGs) (Bame, KJ. Glycobiology,11: 91R-98R,2001), were used as control compounds. […] HBV attachment was detected by qPCR of HBV-DNA at 3 hours after HBV inoculation at 4° C. in the presence or absence of the compound (heparin or heparanase). […]

HBV [2] = test: Anti-HBV activities of LIPG-binding peptides in PXB cells; format: cell-based; details: for anti-HBV activity (effect to reduce HBV DNA and cccDNA copy numbers): HBV-infected PXB cells
Protocol: (§2) An infection source medium was prepared by adding the HBV-infected chimeric mouse serum (PhoenixBio), DMSO, and a PEG 8000 solution to the PXB cell culture medium (PhoenixBio) at final concentrations of 5 genome equivalents/cell, 2%, and 4%, respectively. Various synthesized peptides were diluted to different concentrations in this medium, and the resulting media were added individually to PXB cells (PhoenixBio). After the cells were left to stand in a 5% CO2 incubator at 37° C. for 20 to 28 hours, the medium was removed and the wells were washed once with PBS(−). DMSO and one of the various synthesized peptides were added to the PXB cell culture medium at a final concentration of 2% and different concentrations, respectively, and the resulting media were added individually to the PXB cells to perform medium exchange. This medium exchange was performed at 1, 5, and 9 days post infection and samples were collected at 14 days post infection.
(§3) SMI TEST™ M EX-R&D (Medical & Biological Laboratories) was used to extract DNA from the samples. The extracted DNA was used as a template for quantitative PCR of HBV-DNA. For cccDNA detection, the extracted DNA was treated with T5 exonuclease (New England Biolabs), and the resulting DNA was used as a template for quantitative PCR. The T5 exonuclease treatment was performed at 37° C. for 30 minutes, and the DNase was later inactivated by heating at 80° C. for 15 minutes. The following primer set was used for detection.
PXB cells, fresh human liver cells isolated from PXB mice (human hepatocyte chimeric mice), are human liver cells that maintain human liver functions at high levels and allow persistent infection with hepatitis B virus (HBV). Therefore, PXB cells were used to evaluate the anti-HBV activities of LIPG-binding peptides. LIPG-binding peptides were chemically synthesized because they were added extracellularly (Eurofins Genomics K.K.). Clones that had shown excellent results in the studies of Examples 10 and 1 (KIgk-LIPH4-23, KIgk-LIPH4-74, KIgk-LIPH4-15, KIgk-L1l 14-2. KIgk-LIPH14-14. KIgk-LIPH4-87) were selected for chemical synthesis of the peptides. […] Therefore, LIPH4-NTNA and LIPH4-NTNB, which share a common sequence with netrins and consist of 16 amino acids, were also chemically synthesized. The chemically synthesized peptides were dissolved in DMSO for use in HBV assays in PXB cells.
Next, the anti-HBV activity of full-length Netrin-1 was examined in PXB cells. A full-length human recombinant Netrin-1 protein consisting of 604 amino acid residues (molecular weight: 67.5 kDa, SEQ ID NO: 28) was purchased from R&D Systems. United States. A shRNA with the sequence […]ctcgagc[…] TTTTTTG (single underline: terminal sequences for cloning, lowercase letters: hairpin loop sequence) (SEQ ID NO: 64) was used to knock down the Netrin-1 gene.

[3] = molecular target: T1, binding between preS1 and heparan sulfate enhanced by LIPG (Homo sapiens, UniProt Q9Y5X9); test: Plate assay of binding between preS1 peptide and immobilized heparan sulfate with FLAG-LIPG; details: 10 or 100 nmol of peptide per well, concentration-dependent
T1 construct: FLAG
T1 sequence (Q9Y5X9 21-500): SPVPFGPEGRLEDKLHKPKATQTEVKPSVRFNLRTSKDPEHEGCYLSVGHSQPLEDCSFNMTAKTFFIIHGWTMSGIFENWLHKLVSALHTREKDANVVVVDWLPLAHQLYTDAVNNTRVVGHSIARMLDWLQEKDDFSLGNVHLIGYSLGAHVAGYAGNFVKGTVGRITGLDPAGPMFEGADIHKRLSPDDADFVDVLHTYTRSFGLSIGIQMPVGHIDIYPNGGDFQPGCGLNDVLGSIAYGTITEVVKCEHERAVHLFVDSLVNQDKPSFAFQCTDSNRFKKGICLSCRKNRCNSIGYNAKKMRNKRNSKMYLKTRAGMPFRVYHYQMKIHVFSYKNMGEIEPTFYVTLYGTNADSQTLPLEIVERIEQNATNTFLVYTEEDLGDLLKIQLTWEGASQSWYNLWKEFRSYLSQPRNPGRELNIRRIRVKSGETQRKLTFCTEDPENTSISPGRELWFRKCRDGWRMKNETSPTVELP
Protocol: FIG. 22-2 The effect of LIPG to promote HBV entry into cells and the effect of a LIPG-binding peptide and Netrin-1 to inhibit HBV entry into cells. E: A biotin-labeled form of heparan sulfate was added to a streptavidin-coated 96 well plate and left overnight at 4° C. to allow the heparan sulfate to bind to the plate. This plate was washed with TBS, and 10, 25, or 50 fmol of FLAG-LIPG was then added to each well to allow the reaction to proceed at room temperature for 2 hours. After the plate was washed, 10 or 100 nmol of LIPG-binding peptide LIPH4-NTNBS, LIPH4-23S, LIPH4-NTNBSA, or LIPH4-23SA was added to each well to allow the treatment to proceed at room temperature for 1 hour. Subsequently, the plate was washed, and 0.1 nmol of preS1-TMR was added to each well to allow the treatment to proceed at room temperature for another 1 hour. The plate was washed and then placed in a plate reader to measure the fluorescence of TMR.
Furthermore, PXB cells treated with Netrin-1 were further treated with FLAG-LIPG, and the uptake of the preS1 peptide was examined, to find that the enhancement of the uptake of the preS1 peptide by FLAG-LIPG was suppressed by Netrin-1 (FIG. 22D). In addition, a biotin-labeled heparan sulfate was immobilized on a streptavidin-coated plate and the preS1 peptide was added thereto to study the binding between the preS1 region of HBV and heparan sulfate present on the cell surface.

HBV [4] = test: HBV attachment and uptake assay in HepG2-NTCP-C4-LIPG cells; format: cell-based; details: pretreated 1 hour
Protocol: as §1
When the abundance of LIPG expression was compared among different liver cell lines. […] HepG2-NTCP-C4 cells with overexpression of FLAG-LIPG (HepG2-NTCP-C4-LIPG cells) were established (FIG. 2B), and the attachment and uptake of HBV into cells were assayed in the resulting cells. Heparin, which has been reported to inhibit HBV attachment (Schulze. A. et al., Hepatology 46: 1759-1768, 2007), and heparanase, an endo-β-D-glucuronidase that cleaves the heparan sulfate side chain in heparan sulfate proteoglycans (HSPGs) (Bame, KJ. Glycobiology,11: 91R-98R,2001), were used as control compounds. Cells (HepG2-NTCP-C4-LIPG cells and HepG2-NTCP-C4 control cells) were pretreated with these compounds for 1 hour and then with HBV at 4° C. for 3 hours to allow HBV to attach the cells, washed to wash out HBV, and further incubated at 37° C. for 12 hours to detect uptake of HBV (FIG. 2C). In addition, the cells were further cultured in a conventional culture medium for 3 days after HBV inoculation to detect HBV DNA and cccDNA in the cells (FIG. 2C). HBV attachment was detected by qPCR of HBV-DNA at 3 hours after HBV inoculation at 4° C. in the presence or absence of the compound (heparin or heparanase). HBV attachment (FIG. 2D), uptake (FIG. 2E), and replication of HBV DNA and cccDNA (FIGS. 2F and 2G) were all increased in the HepG2-NTCP-C4-LIPG cells compared to the HepG2-NTCP-C4 control cells.
Next, the effect of a LIPG inhibitor (GSK-264220A) on HBV attachment and uptake was examined. […] At the same time, this inhibitor had no effect on HepG2-NTCP-C4 control cells.

HBV [5] = test: Anti-HBV activities of LIPG-binding peptides delivered into PXB cells-1 (scFv fusions); format: cell-based; details: for HBV-DNA copy number: peptide concentrations (nM) indicated in FIG. 41B; for cccDNA copy number: peptide concentrations (nM) indicated in FIG. 41C
Protocol: as §2, §3
The anti-HBV activities of LIPG-binding peptides delivered into cells were evaluated using PXB cells and anti-ASGR single-chain antibody-LIPG-binding peptide fusions. Of the fusions prepared in Example 16, 10M-L23N, 10M-L23SN. 10M-L23SN-S39, and 10M-LNTSN were used. According to the timeline shown in FIG. 41A, the anti-HBV activities of the fusions were evaluated using the methods described in “(10-5) Infection experiment using PXB cells” and “(10-6) Quantification of HBV-DNA and cccDNA”.

Molecule: CCN(c1nc(N)c(C(=O)N=C(N)N)nc1Cl)C(C)C [5-(N-ethyl-N-isopropyl)amiloride]
- LIPG-mediated increase in HBV replication (cccDNA) (HBV [1]): no effect

Molecule: CN(C)CCCN1c2ccccc2Sc2ccc(Cl)cc21 [chlorpromazine]
- LIPG-mediated increase in HBV replication (cccDNA) (HBV [1]): no effect

Molecule: LNARDNTR (LIPH4-23SA)
- anti-HBV activity (effect to reduce HBV DNA and cccDNA copy numbers) (HBV [2]): as strongly as the original polypeptides
- LIPG-mediated enhancement of binding between preS1 and heparan sulfate [3]: inhibited

Molecule: NARHNTAG (LIPH4-NTNBsA)
- anti-HBV activity (effect to reduce HBV DNA and cccDNA copy numbers) (HBV [2]): as strongly as the original polypeptides
- activity in terms of copy number of HBV-DNA relative to LIPH4-NTNBs (HBV [2]; PXB cells, each concentration): equal to or greater than that of LIPH4-NTNBs
- activity in terms of copy number of cccDNA relative to LIPH4-NTNBs (HBV [2]; PXB cells, each concentration): equal to or greater than that of LIPH4-NTNBs
- LIPG-mediated enhancement of binding between preS1 and heparan sulfate [3]: inhibited

Molecule: heparanase
- increase in HBV attachment, uptake, and replication of HBV DNA and cccDNA in LIPG-overexpressing cells (HBV [4]): reduced this increase to the same level as the control

Molecule: heparin
- increase in HBV attachment, uptake, and replication of HBV DNA and cccDNA in LIPG-overexpressing cells (HBV [4]): reduced this increase to the same level as the control

B1: 10M-L23SN: fusion of ASGR3-10M scFv, cleavage sequence, LIPH4-23s, S28, nuclear localization signal (SEQ ID NO: 128) (protein)
chain: RVRRLNCRDNTRDYKDDDDKHHHHHHHPFVIGAGVLGALGTGIGGITTSTQFYYKPAAKRVKLD
modifications: cleavage sequence + LIPH4-23S + Flag-tag + His-tag + S28 + nuclear localization signal
- HBV-DNA copy number (HBV [5]): remarkably reduced
- cccDNA copy number (HBV [5]): remarkably reduced

B2: 10M-L23N: fusion of anti-ASGR scFv ASGR3-10M, cleavage sequence, LIPH4-23, S28, nuclear localization signal (SEQ ID NO: 127) (protein)
chain: RVRRLNCRDNTRPVMSAMTCDYKDDDDKHHHHHHHPFVIGAGVLGALGTGIGGITTSTQFYYKPAAKRVKLD
modifications: cleavage sequence + LIPH4-23 + Flag-tag + His-tag + S28 + nuclear localization signal
- HBV-DNA copy number (HBV [5]): remarkably reduced
- cccDNA copy number (HBV [5]): remarkably reduced

B3: 10M-L23SN-S39: fusion of ASGR3-10M scFv, cleavage sequence, LIPH4-23s, S39, nuclear localization signal (SEQ ID NO: 129) (protein)
chain: RVRRLNCRDNTRDYKDDDDKHHHHHHHPFVIGAGVLGALGTGIGGITTSTQFYYKLSQELNGDMERPAAKRVKLD
modifications: cleavage sequence + LIPH4-23S + Flag-tag + His-tag + S39 + nuclear localization signal
- HBV-DNA and cccDNA copy numbers (HBV [5]; added concentrations 2.5 to 25 nM): remarkably reduced
- HBV-DNA copy number (HBV [5]): remarkably reduced
- cccDNA copy number (HBV [5]): remarkably reduced
